Results from US20230302148A1, “PHARMACEUTICAL COMPOSITION COMPRISING LONG-ACTING CONJUGATE OF TRIPLE GLUCAGON/GLP-1/GIP RECEPTOR AGONIST” (HANMI PHARM. CO., LTD., priority 2020, published 2023).
Bridges are numbered along the chain shown (N, C = ends). Where no end group is shown, it is not given here. [ ]: non-standard residue; d: D form. The star is where a group is joined. Acetyl(2-(4-imidazolyl)) = O=C(Cc1c[nH]cn1)*; Aib = CC(C)(N)C(=O)O

Target: human GLP-1 receptor (human, UniProt P43220 24-463)
Assay: cell-based or functional assay

Row | Binder | In vitro activity relative to native peptide (%) vs. GLP-1 [%]
1 | [Acetyl(2-(4-imidazolyl))]GQGTFTSDLSKQMDSERAREFIEWLKNTGPSSGAPPPSHG [triple agonist of SEQ ID NO: 18] | < 0.1
2 | {Acetyl(2-(4-imidazolyl))}-[Aib]QGTFTSDYSKYLDEKRQKEFVQWLLDTKC (bridge 15-19) [triple agonist of SEQ ID NO: 89] | 7.1
3 | H[Aib]QGTFTSDVSKYLDGQAAQEFVAWLLAGC [triple agonist of SEQ ID NO: 9] | 32.1
4 | H[Aib]QGTFTSDVSKYLDGQAAQEFVAWLLAGGGPSSGAPPPSC [triple agonist of SEQ ID NO: 10] | 46
5 | Y[Aib]QGTFTSDYSKALDEKAAKEFVQWLLDQHPSSGQPPPSC (bridge 16-20) [triple agonist of SEQ ID NO: 100] | 42.2
6 | Y[Aib]QGTFTSDYSKALDEKAAKDFVNWLLDQHPSSGQPPPSC (bridge 16-20) [triple agonist of SEQ ID NO: 102] | 23.3
7 | [Acetyl(2-(4-imidazolyl))]GQGTFTSDLSKQMDEERAREFIEWLLAQKPSSGAPPPSHG [triple agonist of SEQ ID NO: 17] | 0.2
8 | {Acetyl(2-(4-imidazolyl))}-[Aib]QGTFTSDYSIAMDEIHQKDFVNWLLAQKC (bridge 15-19) [triple agonist of SEQ ID NO: 92] | 0.8
9 | {Acetyl(2-(4-imidazolyl))}-[Aib]QGTFTSDYSKYLDEKRQKEFVNWLLAQKC (bridge 15-19) [triple agonist of SEQ ID NO: 93] | 5.7
10 | [Acetyl(2-(4-imidazolyl))]GEGTFTSDLSKYLDSRRQQLFVQWLKAGGPSSGAPPPSHG [triple agonist of SEQ ID NO: 11] | 1.4
11 | Y[Aib]QGTFTSDYSKALDEKAAKEFVNWLLDHHPSSGQPPPSC (bridge 16-20) [triple agonist of SEQ ID NO: 98] | 28.1
12 | {Acetyl(2-(4-imidazolyl))}-[Aib]QGTFTSDYSIAMDEIHQKDFVNWLLNTC (bridge 15-19) [triple agonist of SEQ ID NO: 87] | 0.9
13 | H[Aib]QGTFTSDVSSYLDGQAQKEFIAWLVKGC [triple agonist of SEQ ID NO: 2] | 5.9
14 | [Acetyl(2-(4-imidazolyl))]GEGTFISDLSKYMDEQAVQLFVEWLMAGGPSSGAPPPSHG [triple agonist of SEQ ID NO: 12] | 0.4

Target: human GCG receptor (human, UniProt P47871 26-477)
Sequence (P47871 26-477): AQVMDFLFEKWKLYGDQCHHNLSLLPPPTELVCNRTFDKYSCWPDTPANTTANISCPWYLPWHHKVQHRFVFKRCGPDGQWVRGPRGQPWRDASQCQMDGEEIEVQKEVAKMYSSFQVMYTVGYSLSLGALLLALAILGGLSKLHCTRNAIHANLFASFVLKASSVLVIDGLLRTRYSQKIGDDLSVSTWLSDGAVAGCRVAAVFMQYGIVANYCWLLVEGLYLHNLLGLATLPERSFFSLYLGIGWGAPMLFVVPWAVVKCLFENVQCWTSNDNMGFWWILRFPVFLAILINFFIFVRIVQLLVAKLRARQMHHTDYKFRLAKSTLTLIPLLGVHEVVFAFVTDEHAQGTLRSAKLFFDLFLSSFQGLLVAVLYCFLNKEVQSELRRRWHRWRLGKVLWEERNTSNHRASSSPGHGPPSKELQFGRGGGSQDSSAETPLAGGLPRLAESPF
Assay: cell-based or functional assay

Row | Binder | In vitro activity relative to native peptide (%) vs. Glucagon [%]
15 | [Acetyl(2-(4-imidazolyl))]GQGTFTSDLSKQMDSERAREFIEWLKNTGPSSGAPPPSHG [triple agonist of SEQ ID NO: 18] | < 0.1
16 | {Acetyl(2-(4-imidazolyl))}-[Aib]QGTFTSDYSKYLDEKRQKEFVQWLLDTKC (bridge 15-19) [triple agonist of SEQ ID NO: 89] | 0.7
17 | H[Aib]QGTFTSDVSKYLDGQAAQEFVAWLLAGC [triple agonist of SEQ ID NO: 9] | 0.13
18 | H[Aib]QGTFTSDVSKYLDGQAAQEFVAWLLAGGGPSSGAPPPSC [triple agonist of SEQ ID NO: 10] | < 0.1
19 | Y[Aib]QGTFTSDYSKALDEKAAKEFVQWLLDQHPSSGQPPPSC (bridge 16-20) [triple agonist of SEQ ID NO: 100] | 12.7
20 | Y[Aib]QGTFTSDYSKALDEKAAKDFVNWLLDQHPSSGQPPPSC (bridge 16-20) [triple agonist of SEQ ID NO: 102] | 29.5
21 | [Acetyl(2-(4-imidazolyl))]GQGTFTSDLSKQMDEERAREFIEWLLAQKPSSGAPPPSHG [triple agonist of SEQ ID NO: 17] | < 0.1
22 | {Acetyl(2-(4-imidazolyl))}-[Aib]QGTFTSDYSIAMDEIHQKDFVNWLLAQKC (bridge 15-19) [triple agonist of SEQ ID NO: 92] | < 0.1
23 | {Acetyl(2-(4-imidazolyl))}-[Aib]QGTFTSDYSKYLDEKRQKEFVNWLLAQKC (bridge 15-19) [triple agonist of SEQ ID NO: 93] | 0.3
24 | [Acetyl(2-(4-imidazolyl))]GEGTFTSDLSKYLDSRRQQLFVQWLKAGGPSSGAPPPSHG [triple agonist of SEQ ID NO: 11] | < 0.1
25 | Y[Aib]QGTFTSDYSKALDEKAAKEFVNWLLDHHPSSGQPPPSC (bridge 16-20) [triple agonist of SEQ ID NO: 98] | 8.2
26 | {Acetyl(2-(4-imidazolyl))}-[Aib]QGTFTSDYSIAMDEIHQKDFVNWLLNTC (bridge 15-19) [triple agonist of SEQ ID NO: 87] | < 0.1
27 | H[Aib]QGTFTSDVSSYLDGQAQKEFIAWLVKGC [triple agonist of SEQ ID NO: 2] | < 0.1
28 | [Acetyl(2-(4-imidazolyl))]GEGTFISDLSKYMDEQAVQLFVEWLMAGGPSSGAPPPSHG [triple agonist of SEQ ID NO: 12] | < 0.1

Target: T1, human GIP receptor (human, UniProt P48546 22-466)
T1 sequence (looked up): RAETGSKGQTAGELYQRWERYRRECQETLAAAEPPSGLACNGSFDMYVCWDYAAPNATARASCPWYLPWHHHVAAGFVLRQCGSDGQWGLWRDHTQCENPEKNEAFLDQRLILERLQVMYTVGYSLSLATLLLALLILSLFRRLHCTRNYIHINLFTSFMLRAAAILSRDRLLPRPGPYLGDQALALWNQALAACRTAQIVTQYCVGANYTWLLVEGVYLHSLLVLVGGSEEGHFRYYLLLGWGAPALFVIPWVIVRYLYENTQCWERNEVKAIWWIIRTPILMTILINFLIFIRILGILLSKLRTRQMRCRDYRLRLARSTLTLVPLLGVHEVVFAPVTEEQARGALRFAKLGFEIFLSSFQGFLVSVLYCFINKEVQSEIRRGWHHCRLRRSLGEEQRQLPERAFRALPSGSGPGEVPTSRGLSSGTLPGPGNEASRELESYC
Assay: cell-based or functional assay

Row | Binder | In vitro activity relative to native peptide (%) vs. GIP [%]
29 | [Acetyl(2-(4-imidazolyl))]GQGTFTSDLSKQMDSERAREFIEWLKNTGPSSGAPPPSHG [triple agonist of SEQ ID NO: 18] | < 0.1
30 | {Acetyl(2-(4-imidazolyl))}-[Aib]QGTFTSDYSKYLDEKRQKEFVQWLLDTKC (bridge 15-19) [triple agonist of SEQ ID NO: 89] | < 0.1
31 | H[Aib]QGTFTSDVSKYLDGQAAQEFVAWLLAGC [triple agonist of SEQ ID NO: 9] | < 0.1
32 | H[Aib]QGTFTSDVSKYLDGQAAQEFVAWLLAGGGPSSGAPPPSC [triple agonist of SEQ ID NO: 10] | < 0.1
33 | Y[Aib]QGTFTSDYSKALDEKAAKEFVQWLLDQHPSSGQPPPSC (bridge 16-20) [triple agonist of SEQ ID NO: 100] | 118
34 | Y[Aib]QGTFTSDYSKALDEKAAKDFVNWLLDQHPSSGQPPPSC (bridge 16-20) [triple agonist of SEQ ID NO: 102] | 58
35 | [Acetyl(2-(4-imidazolyl))]GQGTFTSDLSKQMDEERAREFIEWLLAQKPSSGAPPPSHG [triple agonist of SEQ ID NO: 17] | < 0.1
36 | {Acetyl(2-(4-imidazolyl))}-[Aib]QGTFTSDYSIAMDEIHQKDFVNWLLAQKC (bridge 15-19) [triple agonist of SEQ ID NO: 92] | 0.4
37 | {Acetyl(2-(4-imidazolyl))}-[Aib]QGTFTSDYSKYLDEKRQKEFVNWLLAQKC (bridge 15-19) [triple agonist of SEQ ID NO: 93] | 0.7
38 | [Acetyl(2-(4-imidazolyl))]GEGTFTSDLSKYLDSRRQQLFVQWLKAGGPSSGAPPPSHG [triple agonist of SEQ ID NO: 11] | < 0.1
39 | Y[Aib]QGTFTSDYSKALDEKAAKEFVNWLLDHHPSSGQPPPSC (bridge 16-20) [triple agonist of SEQ ID NO: 98] | 47.1
40 | {Acetyl(2-(4-imidazolyl))}-[Aib]QGTFTSDYSIAMDEIHQKDFVNWLLNTC (bridge 15-19) [triple agonist of SEQ ID NO: 87] | < 0.1
41 | H[Aib]QGTFTSDVSSYLDGQAQKEFIAWLVKGC [triple agonist of SEQ ID NO: 2] | < 0.1
42 | [Acetyl(2-(4-imidazolyl))]GEGTFISDLSKYMDEQAVQLFVEWLMAGGPSSGAPPPSHG [triple agonist of SEQ ID NO: 12] | < 0.1
